assay: soluble fraction after stress (log2 fold change); higher = more stays soluble; pooled small domains, quantitative proteomics; settings: stress: pH 4
Summary of the method: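 Values are on a log2 scale, where higher means more of the domain stayed soluble after pH 4 stress. They are fold changes in the soluble amount of each domain from pooled custom libraries, measured by high-throughput quantitative proteomics. The fold change is taken to reflect aggregation propensity.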

Row | Sequence | soluble fraction (log2)
1 | HMLNSISIKTNKKIDFLEKNEHLVNFVYEKETMEHIYNLSYENKKDLQELQNKLSDIEGIIKINTDL | -2.18
2 | HMVGKGASIILDRVNLPQYLEKFNEDGFDTIESLKNLNEIDLKEMGVKKGHIRVILNYLHEEY | -0.48
3 | HMEIGNVIAKLRVSNGLNQREFAKKLEVSNGAVAMWETNKRQPDLEMIKKISNLFDVPTDYILGAGTFQ | 0.152
4 | HMPALELLVESKKPLLIHGEKIAEDINLFDREKYFIDDELIRIVKEFPSLKIILEHVSSKYGAD | -1.59
5 | HMQISLDTKLINLEFSVRANNVFRENQIFTLRDLTSHSKEDLMLMTNFGKTTLYEVNKKLEEHQLKLSQ | -1.53
6 | HMGSYANAWQLAEHAAKDMLGEVIYLLDGKEVHAGILETMSAESIKTASAENVDGKVVIRLVSK | -0.371
7 | HMSPLDSHLGRRIALRRQQLNTSAADLEKAISMVPGSVARFEAGRQSLNATQLFTLSRALDVPVLYFFEG | -0.418
8 | HMSSTSTKTQNIVHIVKSGETLSAIASKYGVSVDNIKKWNNLSSDKLSIGQKLKINPTTQTSS | -0.186
9 | HMVAQEVPYSTFVMRLDRNEVDAVKIIDGNEIEGTFKSPNGDLVQFKTLIPYQDTELMPLLKQKGVRISGS | ≥ 0.43
10 | HMNQRQKQLLSILEQQGDWMKGKALATLLAVSDRTIRSDIEKINREVEGSILSHPHKGYLLSVENRQIAET | 0.0959
11 | HMNQAIIVPDVKGLPLEEATTFFENNDLRYTVIDSVYTKDVPPGAIYEMVPGAGSKVKEGRIIFVTLNAR | -0.565
12 | HMEYELYALKEEVLKRLTREDRELLILLFEERRTIHAVAQRLGLSDSAVYKRRTQLVNKVKVIASMLM | -0.592
13 | HMPAEGWEASGDTWRYRQKDGSYITNAWVQDTDGKWYYFDESSLMVRNQTTSDGYYVGEDGVWTET | -1.83
14 | HMPNNNDIVLDRVSFGYHEKEVLHGIDMTIREGTVNALVGPSGSGKSTIAKLIAGLWDVDGGSISF | 0.137
15 | HMEELTPLQKYVFDYESDISDEVDMRAIKGLENANDVYDYYANVRGWEGDPDLEDDLDNIYRQVKARFA | -1.2
16 | HMAEQDILQSVYPHIGGQDNVSRTISRNGTLYLMLKDASAVDLKAVKQVPGIADAALERGRLTLQLEE | -0.0819
17 | HMVRSKLEIVPVPEDAVVKIAGLKRLTYQAYQNEDVPYMVYKNGYEAQSGTVFMDTDKTLTVTLEESP | 0.151
18 | HMRETELPVTIISAGRILAENLHLAGRDGGWLEAELKRRSLTAEQVLLLTVDAAGTVYLVRKEDL | -0.617
19 | HMPIRMLQVQKTNTGYLNVRDTPSVSGALIGKVFPGDMLSSTEERDGWFLVAVPQGGTGWVSGDYVKTTS | 0.0778
20 | HMEIDDPWLILGINAGSSIEIAQKAWKDLASQNHPDKLIANGVPKELLGMANEKLAIINGAYDKILKAHKI | -0.792
21 | HMDTMINLIGLNLKKAKKELSNLGVNVKKVRYKKSSVYDEGVVIDQSIEAGRNIKNGDFITITVSSGKA | -0.0745
22 | HMDDDIKNALDVLPEQYRMTVYYADVEGLAYKEIGAIMNTPIGTVMSRIHRGRSQLRVLLAAVAADR | -0.0958
23 | HMISSRDAAVIGLVENIQRAQLNAIDESSGFKHLMETYNLESKEIALLVGKSRSYVSNSLRLSK | -0.235
24 | HMGHEISLNNSRFLKLLNKTKISISNDDTRHYLNGIFLHLTEAHGRQFLTGVATDSHRLSSSSLEID | -0.226
25 | HMNTKDRIKQLAAQRKITIAELERKLHIANGTIGKWDKQNPSIEPLKKLADYFGVTTDYLLGRT | -0.219
26 | HMEDYYKILGVQSNSNPDDIKKAYRKLSLKHHPDRGGDASEFKKINEAYQTLGTPEKRKMYDMQQNN | ≥ 0.43
27 | HMQKIYTIARGDTLSHIVAGTLKQQGIAYTTGELYRLVNVVAQYNDILNPNRIYTGHQLDLTPLYSED | -0.434
28 | HMAENTKKWDETGRRYRSYIKLEKRLSENTVESYMRDYMQFAHFILRQWDVAPHKVEPQMVERYMAWLYER | -0.806
29 | HMNRNEFMERLEYLLSDIPQEEKADAIAYYRDYLEEAGDDAGKAIQDFGSPERIAAMIRSELAG | -0.841
30 | HMDLKENQHILQISNKGVQMGNVLKDLIIQTLNITNGNQIKAAKLLAISRAKLRYRIEQLGINISGKNI | 0.0187

From the domain aggregation screens of Martell et al. (2025)
